One may read the stoichiometry N as the number of molecules, sites or subunits per partner or assembly.

Here are results for 1 substance from PMC3988887.

For the assay, the target named is MBP-Cnn fusion containing the WT PReM domain (MBP-Cnn-WT) (Drosophila melanogaster). The assay can be described thus: SEC-MALS; purified MBP-Cnn fusions; equal volume of protein at 15, 75 or 300 uM loaded onto the column; expected monomer mass 67.4 kDa (by MS). Background: SEC sorts molecules by how far they enter the pores of the column.

“MBP-Cnn fusion containing the WT PReM domain (MBP-Cnn-WT) (domain or fragment)” registered a stoichiometry N of 2.
